Test system: MS2 coat protein
Assay: apparent KD of MS2 coat protein; designed switch direction (-1 OFF switch, 1 ON switch): -1; higher = weaker reporter binding
How it was run: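 Designed RNA switches with common flanks were transcribed on Illumina chips by stalled E. coli RNA polymerase and titrated with SNAP-549-labelled MS2 coat protein, from 0.7 or 1.5 nM doubling to 3 µM, in Tris-HCl pH 7.5 buffer with KCl, MgCl2, BSA, DTT, tRNA and Tween-20. Steps lasted 0.8–1.5 h (lowest) to 10–20 min (highest). Titrations ran without input, with 200 uM small-molecule ligand, or with an oligonucleotide input. Normalised cluster fluorescence was curve-fitted, and apparent KD is the per-design median over clusters.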

[1] = Eterna round: R95, input ligand: FMN 200 uM
[2] = Eterna round: R95, input ligand: microRNA oligo, concentration not stated
[3] = Eterna round: R95, input ligand: none
[4] = input ligand: microRNA oligo, concentration not stated

Sequence	apparent KD of MS2 coat protein [1]	apparent KD of MS2 coat protein [2]	apparent KD of MS2 coat protein [3]	apparent KD of MS2 coat protein [4]	apparent KD of MS2 coat protein (input ligand: FMN 200 uM)	apparent KD of MS2 coat protein (input ligand: none)
GAACGCCGGCAGGAUAUGGACAGCCAAAAGGCGCCAGAAGGGCCAACAUGAGGAUCACCCAUGUGUCCUGAUGG [Riceanon] (puzzle: Exclusion 6)	10.9 nM	8.46 nM	10.3 nM	–	–	–
GAACUCGUGAAGGAUAUCCGUACCAAAGCGGCAGGAGAAGGUCACACAUGAGGAUCACCCAUGUGGUACCUCGU [Xeinbira] (Eterna round: R96, puzzle: Exclusion 6)	–	–	–	23.6 nM	–	–
GAACUCGUGAAGGAUAUCCGUACCAAAGCGGCAGGAGAAGGUCACACAUGAGGAUCACCCAUGUGGUACCUCGU [Xeinbira] (puzzle: Exclusion 6)	80.1 nM	27.4 nM	25.1 nM	–	–	–
GAACUGAAGCUUUGCUUUAGUCGUACAUGAGGAUCACCCAUGUAGGAUAUGGUAGGCAAAGCUUACUAGAAGGACAGAGUGAUC [Mat - Exclusion NG 3 - Mod of JL - D69] (Eterna round: R96, puzzle: Exclusion NG 3)	–	–	–	156 nM	99.1 nM	71.3 nM
GAAGAAAACCAAGGAUAUCGGAAAGGAAGUGUACGAGAAGGUGGACAUGGACAUGAGGAUCACCCAUGUGGCCCGAUGCCGUGG [PowerStrip EXNG 1.5] (Eterna round: R96, puzzle: Exclusion NG 1)	–	–	–	33.5 nM	54.8 nM	38.1 nM
GAAGAACAUGAGGAUCACCCAUGUGAGGAUAUGAAAAAGAAAAGAAAAGAAAGAAGAAUCAGAAGGCACAAAGG [Mat - Mod of Hog D2] (puzzle: Exclusion 1)	50.8 nM	23.1 nM	38.3 nM	–	–	–
GAAGAUCUGCAGGAUAUGAGACUGAAACAGUUCUCAGAAGGGCGGACAUGAGGAUCACCCAUGUAAGACUGCAA [Eternabot (Original) Solution 4] (Eterna round: R97, puzzle: Exclusion 6)	–	–	–	–	41.6 nM	78.8 nM
GAAGCACAUGAGGAUCACCCAUGUAAGGAUAUAUUUCUGGUCCGGCCGGACCAGUACCGUAGAAGGUAUGUAAA [Excls-IIIa] (puzzle: Exclusion 1)	–	11.8 nM	–	–	–	–
GAAUAGAGAGGAUAUGCGAUGUAGGUAGUACGAUAUAUCUGACAUGAGGAUCACCCAUGUAGAAGGCUCAGAUC [EX2 #6] (Eterna round: R97, puzzle: Exclusion 2)	–	–	–	–	33.9 nM	36.4 nM
GAAUAGGCAGGAUAUACAUGAGGAUCACCCAUGUGCCGGCGAAAGGUACGUUCGAAAGGUAGAAGGGCCUAAAC [ChP 13.04.2015 #7] (Eterna round: R96, puzzle: Exclusion 3)	–	–	–	36.7 nM	176 nM	41.8 nM
GAAUAGGCAGGAUAUACAUGAGGAUCACCCAUGUGCCGGCGAAAGGUACGUUCGAAAGGUAGAAGGGCCUAAAC [ChP 13.04.2015 #7] (puzzle: Exclusion 3)	151 nM	43.8 nM	48.9 nM	–	–	–
GAAUGAGAGCAGGAUAUCUUAAAAAUGUAUCAAAGAGAAGGGCUCACAUGAGGAUCACCCAUGUGGUCCUAGAU [jl-ex6-4.67 jandersonlee mod] (Eterna round: R97, puzzle: Exclusion 6)	–	–	–	–	152 nM	22.5 nM
GAAUGAGAGCAGGAUAUCUUAUAAAUGUAUGAAAGAGAAGGGCUCACAUGAGGAUCACCCAUGUGGUCCUAGAC [jl-ex6-4.72 jandersonlee mod] (Eterna round: R97, puzzle: Exclusion 6)	–	–	–	–	309 nM	40.1 nM
GACAGGCAGGCAGGAUAUGCCCGUGUGGAUGGUGUAGAAGGGCUAGCGGGUCACUUGAGGAUCACCCAAGUGGAGGGUGGCCUA [Mutated MS2 EX1.28] (Eterna round: R96, puzzle: Exclusion NG 1)	–	–	–	31.2 nM	51.3 nM	38.2 nM
GACAUGAGGAUCACCCAUGUAAGGGAUGAACUUCUGGGUAGCUAGGAUAUGGCUAUAAAGAUGGACCAGAAGGAGCGGACCCUA [Orlaveceat] (Eterna round: R96, puzzle: Exclusion NG 3)	–	–	–	31.4 nM	48.7 nM	32.4 nM
GACCGGACGUGGUCUGGUAACAUGAGGAUCACCCAUGUAGGUCUAAGAACAAGCCUUUUGCACGCUCGUCUUAUAUU [JR_SV3TOV1_Sub061] (puzzle: Sensor v3, turn-off variant 1)	64.4 nM	56.5 nM	88.2 nM	–	–	–
GACCUGUGAGGAUAUUAUUAAAGGCCAAGUUAGGCCUUAAUUGAGAAGGCACAUGAGGAUCACCCAUGUUUGAC [Eternabot (L2) Solution 55] (Eterna round: R97, puzzle: Exclusion 4)	–	–	–	–	90.3 nM	22.3 nM
GACGAGUGAGGAUAUGGUGAGUAGUGCCUGAGCGCUGCUCACCAGAAGGCACAUGAGGAUCACCCAUGUAUGUC [Mat - Exclusion 4 - Mod of JL - D11] (puzzle: Exclusion 4)	–	13.2 nM	–	–	–	–
GACUAGGGAGGAUAUAUUUACAGUGUACCUCGGAUGAUCGCACUUGAGGAUCACCCAAGUAGAAGGCUCGAGGG [EX2 #28] (Eterna round: R97, puzzle: Exclusion 2)	–	–	–	–	30.4 nM	33.2 nM
GACUCAAUCCGAGGAUAUUGCCAGCGCUGCUAUCACAUGAGGAUCACCCAUGUAUCCUCGGCUUUCGAGAAGGCGGAUUGAGCG [Eternabot solution 35] (Eterna round: R96, puzzle: Exclusion NG 2)	–	–	–	46.8 nM	132 nM	49.9 nM
GAGAAGGUAGGAUAUACGAAGAAAGAGGGUAGGAAGAAUACACAUGAGGAUCACCCAUGUAGAAGGACCAAGAG [Mat - Exclusion 2 - Mod of my Tesla design - D47] (puzzle: Exclusion 2)	32.9 nM	17.8 nM	23 nM	–	–	–
GAGAGAUAGAUAGAGGACGACAUGAGGAUCACCCAUGUGAGGGAAAUGUUAAGGAGAAAGCUUUUUGCUCGUCUUAA [JR_SV3TOV1_Sub034] (puzzle: Sensor v3, turn-off variant 1)	123 nM	57.7 nM	152 nM	–	–	–
GAGCAGGAAGGAUAUACAUGAGGAUCACCCAUGUACCAUCAAGGCUUUGAUUUUCACGGUAGAAGGUCCCAAUA [Sotece] (puzzle: Exclusion 3)	–	34.8 nM	–	–	–	–
GAGGAGCAAGGAUAUACGAGGAGAGGGAAGAGAGGAGAGAGACAUGAGGAUCACCCAUGUAGAAGGUGCAAGGG [JR_Exclu2_Sub093] (puzzle: Exclusion 2)	116 nM	131 nM	180 nM	–	–	–
GAGGUACAUGAGGAUCACCCAUGUGAGGAUAUAGGUAGAGAUUGAGAGAGGUGGAGGACUAGAAGGCACAGUGG [JR_Exclu1_Sub040] (puzzle: Exclusion 1)	59.6 nM	46 nM	60.3 nM	–	–	–
GAGGUGUUAGGAUAUCGGAGAUGGAGAAGAACGGGAUGAGCCGAGAAGGAACAUGAGGAUCACCCAUGUAGGUG [JR_Exclu4_Sub031] (puzzle: Exclusion 4)	415 nM	420 nM	553 nM	–	–	–

— the supplement of paper PMC9170038
